Measured values published in publication PMC8660799, “Cryo-EM reveals unique structural features of the FhuCDB Escherichia coli ferrichrome importer” (Communications Biology, 2021).
Where two headings read alike, the source gives them in different places. Values belong to the molecule of their own block, whether it stands above or below them.

What was measured:
BtuF (Escherichia coli) [1] = target: BtuF (Escherichia coli) (UniProt P37028); conditions: cited from earlier work
BtuF (Escherichia coli) [2] = target: BtuF (Escherichia coli) (UniProt P37028); conditions: cited from earlier work; remark: listed apart in the source
[3] = substrate: Nc1ncnc2c1ncn2[C@@H]1O[C@H](COP(=O)(O)OP(=O)(O)OP(=O)(O)O)[C@@H](O)[C@H]1O; test: ATPase assay in proteoliposomes, malachite green phosphate detection; type: biochemical, Escherichia coli; conditions: MgCl2, 37 °C
[4] = target: T1, FhuCB subcomplex (membrane subunit FhuB and cytosolic ATPase FhuC of the ferrichrome importer), wild type (Escherichia coli, UniProt P07821 1-265; P06972 1-660, red-tris-NTA 2nd generation dye on the His-tag (in the MST experiments)); test: MST; 40 nM FhuCB in detergent, His-tag labelled with red-tris-NTA 2nd generation dye; serial dilution of 1.6 μM FhuD with substrate ferrichrome; without ATP-Mg; Monolith NT.115pico, 20% LED power, medium MST power; conditions: both partners purified
T1 construct: cloned from the genome with the operon; a thrombin site stands between the His-tag and FhuC; Made from FhuCB-pET15b (FhuD gene deleted from FhuCDB-pET15b); The copy numbers (two FhuC, one FhuB) are told for the FhuCDB structure; In the gel filtration experiment the same chains came from the FhuCDB construct, co-expressed with FhuD; also called Fhu importer; wild-type FhuCB; source: E. coli …
T1 sequence (looked up) 1: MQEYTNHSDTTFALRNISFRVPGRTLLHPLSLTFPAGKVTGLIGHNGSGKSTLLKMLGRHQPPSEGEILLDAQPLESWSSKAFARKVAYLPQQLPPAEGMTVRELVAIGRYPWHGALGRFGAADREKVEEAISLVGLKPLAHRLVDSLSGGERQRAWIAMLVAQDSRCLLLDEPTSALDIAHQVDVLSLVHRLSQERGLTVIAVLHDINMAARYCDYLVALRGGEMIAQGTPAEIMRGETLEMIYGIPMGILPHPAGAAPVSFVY
T1 sequence (looked up) 2: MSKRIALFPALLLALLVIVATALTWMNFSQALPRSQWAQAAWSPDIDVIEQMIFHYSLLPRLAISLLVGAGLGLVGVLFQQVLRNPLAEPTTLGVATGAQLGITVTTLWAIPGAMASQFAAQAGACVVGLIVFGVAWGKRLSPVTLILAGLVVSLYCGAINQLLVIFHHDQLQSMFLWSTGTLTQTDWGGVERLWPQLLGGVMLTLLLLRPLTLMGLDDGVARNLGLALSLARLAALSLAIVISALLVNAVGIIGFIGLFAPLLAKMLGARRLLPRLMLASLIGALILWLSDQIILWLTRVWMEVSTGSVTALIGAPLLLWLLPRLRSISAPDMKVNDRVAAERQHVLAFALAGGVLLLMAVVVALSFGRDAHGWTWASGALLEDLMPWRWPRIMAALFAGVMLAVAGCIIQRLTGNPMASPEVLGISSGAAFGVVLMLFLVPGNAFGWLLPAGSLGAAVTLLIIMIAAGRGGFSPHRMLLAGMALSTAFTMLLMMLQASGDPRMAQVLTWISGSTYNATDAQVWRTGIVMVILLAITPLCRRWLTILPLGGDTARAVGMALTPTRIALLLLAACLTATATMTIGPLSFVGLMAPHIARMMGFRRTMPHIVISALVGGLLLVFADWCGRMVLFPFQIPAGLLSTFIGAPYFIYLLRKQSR

[5] = target: T1, FhuCB subcomplex (membrane subunit FhuB …); test: MST; 40 nM FhuCB in detergent, His-tag labelled with red-tris-NTA 2nd generation dye; serial dilution of 1.6 μM FhuD with substrate ferrichrome; with ATP; Monolith NT.115pico, 20% LED power, medium MST power; conditions: both partners purified

Chain of BtuF (Escherichia coli) (P37028 23-266): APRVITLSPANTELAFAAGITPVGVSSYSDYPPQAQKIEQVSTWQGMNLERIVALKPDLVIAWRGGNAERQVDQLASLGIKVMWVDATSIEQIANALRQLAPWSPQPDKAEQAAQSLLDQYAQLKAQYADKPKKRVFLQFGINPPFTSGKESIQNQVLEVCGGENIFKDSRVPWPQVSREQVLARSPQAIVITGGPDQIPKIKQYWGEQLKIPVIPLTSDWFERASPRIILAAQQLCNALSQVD

Molecule: BtuCD (from UniProt P06609)
Kd (BtuF (Escherichia coli) [1]): 0.00012 nM
Kd (BtuF (Escherichia coli) [2]): 21.1 nM

B1: FhuCB subcomplex (Escherichia coli K-12) (protein)
chain: MQEYTNHSDTTFALRNISFRVPGRTLLHPLSLTFPAGKVTGLIGHNGSGKSTLLKMLGRHQPPSEGEILLDAQPLESWSSKAFARKVAYLPQQLPPAEGMTVRELVAIGRYPWHGALGRFGAADREKVEEAISLVGLKPLAHRLVDSLSGGERQRAWIAMLVAQDSRCLLLDEPTSALDIAHQVDVLSLVHRLSQERGLTVIAVLHDINMAARYCDYLVALRGGEMIAQGTPAEIMRGETLEMIYGIPMGILPHPAGAAPVSFVY
notes: full-length FhuB and FhuC without FhuD; N-terminal His-tag and thrombin site on FhuC; pET15b, E. coli BL21(DE3) C43; purified in LMNG, reconstituted in E. coli polar lipid proteoliposomes; with Iron(3+)-hydroxamate import system permease protein FhuB
Km ([3]; Michaelis-Menten fit with Hill coefficient (cooperative), no FhuD): 690 ± 80 µM

B2: FhuCB + FhuD (ATPase assay) (Escherichia coli K-12) (protein)
chain: MQEYTNHSDTTFALRNISFRVPGRTLLHPLSLTFPAGKVTGLIGHNGSGKSTLLKMLGRHQPPSEGEILLDAQPLESWSSKAFARKVAYLPQQLPPAEGMTVRELVAIGRYPWHGALGRFGAADREKVEEAISLVGLKPLAHRLVDSLSGGERQRAWIAMLVAQDSRCLLLDEPTSALDIAHQVDVLSLVHRLSQERGLTVIAVLHDINMAARYCDYLVALRGGEMIAQGTPAEIMRGETLEMIYGIPMGILPHPAGAAPVSFVY
notes: FhuCB (N-terminal His-tag and thrombin site on FhuC) in proteoliposomes with purified FhuD enclosed; with Iron(3+)-hydroxamate import system permease protein FhuB
Km ([3]; Michaelis-Menten fit with Hill coefficient, 1 μM FhuD enclosed, no ferrichrome): 740 ± 50 µM

Kd [4]: ~12.2 nM
Kd [5]: ~1.03 nM
B3: FhuD, periplasmic substrate-binding protein, expressed alone (natural protein, Escherichia coli, UniProt P07822 31-296, looked up)
chain: AAIDPNRIVALEWLPVELLLALGIVPYGVADTINYRLWVSEPPLPDSVIDVGLRTEPNLELLTEMKPSFMVWSAGYGPSPEMLARIAPGRGFNFSDGKQPLAMARKSLTEMADLLNLQSAAETHLAQYEDFIRSMKPRFVKRGARPLLLTTLIDPRHMLVFGPNSLFQEILDEYGIPNAWQGETNFWGSTAVSIDRLAAYKDVDVLCFDHDNSKDMDALMATPLWQAMPFVRAGRFQRVPAVWFYGATLSAMHFVRVLDNAIGGKA
notes: the gene was amplified and cloned into pET15b; Used without substrate and loaded with the small molecule ferrichrome (told apart by the assays); also called SBP; ferrichrome-loaded FhuD
